# Laboratory results: IntAct's records for PubMed 20581866
# B1: ATPase family AAA domain-containing protein 2 (Mus musculus), Q8CDM1 (parent)
# chain: MSLLKMRRHAIHSSDSTSSSSSEDDCFERRTKRNRNRAINRCLPLNFRKDEIRGIYKDRMKIGASLADVDPMQLDTSVRFDSVGGLSSHIAALKEMVVFPLLYPEVFEKFKIQPPRGCLFYGPPGTGKTLVARALANECSRGDKRVAFFMRKGADCLSKWVGESERQLRLLFDQAYQMRPAIIFFDEIDGLAPVRSSRQDQIHSSIVSTLLALMDGLDSRGEIVVIGATNRLDSIDPALRRPGRFDREFLFSLPDKNARKEILKIHTRDWNPKPVDMFLEELAEHCVGYCGADIKSICAEAALCALRRRYPQIYTTSEKLQLDLSSITISAKDFEAALQKIRPASQRAVTSPGQALSAIVKPLLQNTVHRILDALQKVFPHVEVGTNKSLNSDVSCPFLESDLAYSDDDTPSVYENGLSQKENLNFLHLNRNACYQPMSFRPRLLIVGEPGFGQSSHLAPAVIHALEKFTVYTLDIPVLFGISTTSPEEACSQMIREAKRTAPSIVYVPHIHLWWEIVGPTLKATFTTLLQTIPSFAPVLLLATSEKPYSALPEEVQELFTHDYGEIFNVQLPDKEERTKFFEDLILKQASKPPVSQKKAVLQALEVLPVAPPPEPRPLTAEEVKRLEEQEEDTFRELRIFLRNVTHRLAIDKRFRVFTKPVDPDEVPDYVTVIKQPMDLSSVISKIDLHKYLTVKDYLKDIDLICSNALEYNPDRDPGDRLIRHRACALRDTAYAIIKEELDEDFEQLCEEIQESRKKRGCSSSKYAPSYYHVMPKQNSPPVGDKKPDQEQNEKLKVPCTPVACSTPAQLKRKFHKKSKWHVGTKIKRRKISQAKDNSLNAMNSSSRSDTEDSQHTHAEHTEPGNTDESSVEESDKQNRLESNIDLKNNSSSSNIENELEEPKETTEGTELRKDRIVCRGDASASQVTDIPEDSESKEMDFLRMTLARGSQVEQQELISMEQALAILSQPTPSLVLDHKQLTNILKTVVKKSQKYNIFQLENLYAVISQCIYEHRRDYDKTALVQKMEQAVENFNCSRS
# Variants of: B1
# Conditions: with h4_mouse H4c11, P62806
row,effect of a mutation on the interaction,Variant
1,disrupting interaction,Y670F
2,disrupting interaction,K128S
